The numbers were not newly measured in PMC8369179, which cites them from elsewhere.

In the data set the target is RAGE 23-121 (Homo sapiens) (UniProt Q15109).
UniProt Q15109, sequence (Q15109 23-121): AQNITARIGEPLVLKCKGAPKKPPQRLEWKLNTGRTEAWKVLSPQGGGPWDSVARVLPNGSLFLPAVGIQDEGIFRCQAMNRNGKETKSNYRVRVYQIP

As for HMGB1 1-215 (from UniProt P09429), the Kd was 48.3 nM.

For orientation: Kd means the free concentration of one partner at which half of the binding sites on the other are occupied at equilibrium, for simple one-to-one binding.
